Values quoted from earlier work as cited in publication PMC3166722.
Where two headings read alike, the source gives them in different places.

How the values were obtained:
[1] = target: GPC (trypsinized IOVs) (Homo sapiens) (UniProt P04921); test: IOV binding, Scatchard analysis
[2] = target: CaM (Homo sapiens) (UniProt P0DP23); test: resonant mirror detection (IAsys)
[3] = target: CaM (Homo sapiens) (UniProt P0DP23)

GPC (trypsinized IOVs) (Homo sapiens), sequence (P04921 whole entry): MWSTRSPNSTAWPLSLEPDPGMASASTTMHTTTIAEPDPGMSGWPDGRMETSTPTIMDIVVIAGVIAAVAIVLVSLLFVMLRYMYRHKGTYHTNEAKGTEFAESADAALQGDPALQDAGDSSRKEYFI
4.1R135, sequence (P11171 whole entry): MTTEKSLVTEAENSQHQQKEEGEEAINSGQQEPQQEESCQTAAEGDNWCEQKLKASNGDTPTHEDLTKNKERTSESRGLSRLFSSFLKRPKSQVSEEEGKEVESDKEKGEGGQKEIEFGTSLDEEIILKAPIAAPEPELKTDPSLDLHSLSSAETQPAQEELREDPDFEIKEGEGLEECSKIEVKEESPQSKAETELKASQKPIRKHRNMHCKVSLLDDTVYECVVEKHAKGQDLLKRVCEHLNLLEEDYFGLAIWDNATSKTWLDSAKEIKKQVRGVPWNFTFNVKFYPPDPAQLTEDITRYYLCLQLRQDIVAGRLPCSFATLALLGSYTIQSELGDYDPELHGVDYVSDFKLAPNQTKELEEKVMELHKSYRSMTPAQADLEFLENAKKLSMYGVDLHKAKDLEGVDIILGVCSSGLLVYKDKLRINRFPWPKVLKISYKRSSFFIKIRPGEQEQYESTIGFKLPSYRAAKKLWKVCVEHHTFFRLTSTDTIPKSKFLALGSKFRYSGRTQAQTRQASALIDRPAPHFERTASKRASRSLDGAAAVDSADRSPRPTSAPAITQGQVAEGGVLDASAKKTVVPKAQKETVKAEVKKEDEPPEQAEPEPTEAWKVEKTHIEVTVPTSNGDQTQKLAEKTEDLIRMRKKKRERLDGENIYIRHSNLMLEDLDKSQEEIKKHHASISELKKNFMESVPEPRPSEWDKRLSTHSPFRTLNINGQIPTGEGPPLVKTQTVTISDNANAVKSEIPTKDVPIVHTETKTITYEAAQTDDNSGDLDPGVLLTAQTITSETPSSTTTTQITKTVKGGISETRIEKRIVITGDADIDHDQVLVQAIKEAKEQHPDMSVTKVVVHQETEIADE
4.1R80, sequence (P11171 whole entry): as above

Kd [1]	Kd [2]	Kd [3]	Substance
76 nM	–	–	4.1R80 (from UniProt P11171)
2000 nM	51 nM	–	4.1R135 (from UniProt P11171)
–	–	10 nM	4.1G (from UniProt O43491)
